Molecular target: T1, His6-tagged Bd2492 (Bd2492-His6) expressed in E. coli from plasmid pD2492N/3734 (Bdellovibrio bacteriovorus HD100, UniProt Q6MKB3 1-353)
T1 construct: Bd2492, 353 amino acid TPR protein of Bdellovibrio bacteriovorus HD100; The label Bd2492-His6 hints at a C-terminal tag and the plasmid name pD2492N at an N-terminal one; also called TPRBd; source: E. coli, heterologously co-expressed with MglA from plasmid pD2492N/3734
T1 sequence (looked up): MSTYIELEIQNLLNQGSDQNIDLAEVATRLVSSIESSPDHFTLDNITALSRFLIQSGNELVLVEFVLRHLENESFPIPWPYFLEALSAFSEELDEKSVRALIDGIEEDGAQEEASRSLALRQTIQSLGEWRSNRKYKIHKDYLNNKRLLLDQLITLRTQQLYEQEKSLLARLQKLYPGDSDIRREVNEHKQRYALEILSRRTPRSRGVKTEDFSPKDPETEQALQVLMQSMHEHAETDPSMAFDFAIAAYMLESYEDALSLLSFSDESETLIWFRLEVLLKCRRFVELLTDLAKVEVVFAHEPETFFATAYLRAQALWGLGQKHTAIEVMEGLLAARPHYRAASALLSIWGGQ
Experiment: SEC; gel filtration and SDS-PAGE of purified MglA and Bd2492-His6; data not shown
Conditions: both partners purified

B1: MglA (Bd3734) co-expressed in E. coli from plasmid pD2492N/3734 (natural protein, Bdellovibrio bacteriovorus HD100, UniProt Q6MH29 1-197, looked up)
chain: MSFINYNAKEIHCKVVYYGPSLGGKTTNIQWVYQKTAEDQKSKLVALNTDIERTLFFDFLPLNVGDIRGFKTRFHLYTVPGQVVYDASRKLILKGLDGVIFVADSQIERMDENLESLRNLERNLEQQGYDIREIPLIMQYNKRDLPNVASLAELRSALNPYNAPEIEGCASEGRGVFESLKTVSKSIINVLKGGTTL
notes: MglA (Bd3734) of Bdellovibrio bacteriovorus HD100; No tag is named on MglA in this construct; source: E. coli, heterologously co-expressed with Bd2492-His6 from plasmid pD2492N/3734
stoichiometry N: 1

— paper PMC3983030, “Ras GTPase-Like Protein MglA, a Controller of Bacterial Social-Motility in Myxobacteria, Has Evolved to Control Bacterial Predation by Bdellovibrio” (PLoS Genetics, 2014)
